In patent US9527913B2, “Humanized pan-HER antibody compositions” (Symphogen A/S, priority 2012, dated 2016):
Read-outs that look alike come from different tables or passages of the source. Blank lines part the entries; values can stand above or below the molecule they belong to.

Legend:
[1] = tested on: patient-derived xenograft models of pancreatic cancer; details: cited from earlier work
[2] = tested on: MDA-MB-175-VII cells; assay: WST-1 metabolic activity, parental and pertuzumab resistant cells (Example 5); assay type: cell-based, human; details: 96 hours
Description: Cells were split once or twice a week in order to keep cells in exponential growth. The level of resistance was tested every month in a WST-1 viability assay as described in Example 2, until a pool of resistant cells was established.
Metabolic activity was determined after 96 hours incubation using a similar WST-1 assay as described in Example 2.

[3] = tested on: cynomolgus HER3; assay: Kinetic binding analysis by surface plasmon resonance (ProteOn XPR36, IgG capture); details: Cynomolgus antigen
Description: (§1) Kinetic binding analysis of the purified humanized variants was performed on a ProteOn™ XPR36 biosensor (BioRad, USA) employing an IgG capture assay as described by Canziani et al. (Anal. Biochem. (2004) 325:301-307) that allows for measurement of antibody affinities of whole IgG molecules against soluble antigen under monovalent conditions. Briefly, approximately 5000 resonance units (RU) of a monoclonal mouse anti-human IgG Fc antibody (GE Healthcare, Denmark) was conjugated to a GLC chip surface (BioRad, USA) according to the manufacturer's instructions, followed by capture of individual antibodies of the invention or a negative control on the anti-Fc sensor surface. […] Next, 250 μl monovalent antigen (Sino Biologicals) was injected at a flow rate of 50 μl/min in serial threefold dilutions from 100 nM stock to generate response curves. The chip surface was regenerated between cycles by stripping the captured antibody/antigen complexes off the surface with a 10-second injection of 3 M MgCl2 (GE Healthcare, Denmark) repeated three times. Finally, binding responses were fitted to a Langmuir 1:1 binding model for calculation of the on-rate (kon or ka), off-rate (koff or kd) and affinity (KD) constants using double referencing.

[4] = biological target: T1, human HER3 (Homo sapiens, UniProt P21860); assay: as above; details: Human antigen
T1 construct: against soluble antigen under monovalent conditions; purchased Sino Biologicals
Description: as §1

[5] = tested on: EGFR, HER2 and HER3 from humans, cynomolgus monkeys and mice, human and murine HER4; assay: Cross-reactivity ELISA with coated antigens; assay type: binding, mouse; details: OD at 450 nm, 40 nM antibody, compared to chimeric parent
Description: Antibody-antigen binding was measured by ELISA with coated antigens. Human antigens were obtained from Sino Biologicals. All other antigens were produced in-house by transient expression in CHO or HEK293 cells. Chimeric and humanized antibodies, as well as an isotype control antibody, were incubated with the coated antigens at different concentrations. After wash, bound antibodies were detected by HRP-(horse radish peroxidase)-conjugated secondary antibodies. The OD signal from 40 nM antibody, measured at 450 nm using an ELISA reader, was scored from negative (−; OD<0.1) to strongly positive (+++; OD>2.5).

[6] = tested on: A431NS, H358, FaDu, OE19, BT474, MDA-MB-175 VII, MCF-7, N87, HN5, MFE-280 cancer cell lines; assay: Viability assay (WST-1) of humanized variants with partner antibody and of six-antibody mixtures; assay type: cell-based, human; details: two cell lines per variant, 96 hours
Description: Each humanized variant was tested in two cell lines and compared to the parental mixture of two chimeric antibodies and to a negative control antibody. […] In addition, a combination of six humanized variants (11294, 11302, 11249, 11145, 10738 and 11052; Humanized Pan-HER) was tested in a number of cell lines and compared to the combination of the six chimeric antibodies (1277, 1565, 4384, 4517, 5038 and 5082; Chimeric Pan-HER). The cell lines used, N87 gastric, FaDu head and neck, A431NS epidermoid, OE19 esophageal, HN5 head and neck, MDA-MB-175 VII breast and MFE-280 endometrial cancer, were selected on the basis of their previously determined dependency on the HER family receptors.
Prior to performing the viability assay the appropriate antibodies and antibody mixtures were diluted to a final total antibody concentration of 100 μg/ml in appropriate media supplemented with 0.5-2% FBS and 1% P/S (penicillin/streptomycin), yielding a final total antibody concentration of 50 μg/ml in the well containing the highest antibody concentration. A threefold serial dilution of the antibodies was then performed in a 384-well plate, followed by addition of relevant numbers of cells to the experimental wells. The MCF-7 cells were also stimulated with 1 nM heregulin beta. The plates were incubated for 4 days in a humidified incubator at 37° C. WST-1 reagent (Roche Applied Science, Mannheim, Germany) was added to the plates and the plates were incubated for 1-3 h at 37° C. Plates were transferred to an orbital plate shaker for one h and the absorbance was measured at 450 and 620 nm (reference wavelength) using an ELISA reader. The percentage of metabolically active cells (MAC) is calculated as a percentage of the untreated control as follows: […]

[7] = tested on: EGFR, HER2 and HER3 in OVCAR-8 cells; assay: Western blot of EGFR, HER2 and HER3 in whole cell lysates (Example 6); assay type: cell-based, human; details: OVCAR-8, 20 μg/ml, 48 hour
[8] = tested on: cynomolgus EGFR; assay: Kinetic binding analysis by surface plasmon resonance (ProteOn XPR36, IgG capture); details: Cynomolgus antigen
Description: as §1

[9] = tested on: EGFR, HER2 and HER3 in H292 cells; assay: Western blot of EGFR, HER2 and HER3 in whole cell lysates (Example 6); assay type: cell-based, human; details: H292, 20 μg/ml, 48 hour

ka [3]: 1.3e+06 M⁻¹ s⁻¹
kd [3]: 0.00026 s⁻¹
ka [4]: 870000 M⁻¹ s⁻¹
kd [4]: 0.00016 s⁻¹
B1: antibody 11052: humanized anti-HER3 antibody from chimeric parent 5082; HC SEQ ID NO: 60, LC SEQ ID NO: 61 (antibody, V domains shown)
VH: QVQLQESGPGLVKPSQTLSLTCTVSGYSITSAYYWNWIRQFPGKGVEWMGYIGYSGRNTYNPSLKNRVTISRDTSKNQFSLKLSSVTAADTAVYYCSREGDYGYSDYWGQGTLVTVSS
VL: DIQMTQSPSSLSASVGDRVTVTCRASQDINNYLNWYQQKPGKAVKLLIYYTSRLQSGVPSRFSGSGSGTDYTLTISSLQPEDFATYFCQQSETLPWTFGQGTKLEIK
cross-reactivity pattern with HER family antigens [5]: binding to the same human and cynomolgus antigen combined with lack of binding to the mouse antigen or to other EGFR family receptors
anti-proliferative effect in combination with partner antibody, compared to mixture of the two chimeric parent antibodies [6]: highly similar anti-proliferative effects

ka [3]: 1.7e+06 M⁻¹ s⁻¹
kd [3]: 0.00016 s⁻¹
ka [4]: 910000 M⁻¹ s⁻¹
kd [4]: 7.3e-05 s⁻¹
B4: antibody 5082: chimeric parent anti-HER3 antibody disclosed in WO 2012/059857; VH SEQ ID NO: 35, light chain SEQ ID NO: 37 (antibody)
VH: RAEVQLKESGPGLVKPSQSLSLTCSVTGYSITSAYYWNWIRQFPGNKVEWMGYIGYDGRNTYNPSLKNRISITRDTSKNQFFLKLNSLTTEDTATYYCSREGDYGYSDYWGQGTTLTVS
light: LADIVMTQATSSLSASLGDRVTVSCRASQDINNYLNWYQQKPDGTVKLLIYYTSRLQSGVPSRFSGSGSGIDYSLTISNLEQEDFVTYFCQQSETLPWTFGGGTKLELKRTVAAPSVFIFPPSDEQLKSGTASVVCLLNNFYPREAKVQWKVDNALQSGNSQESVTEQDSKDSTYSLSSTLTLSKADYEKHKVYACEVTHQGLSSPVTKSFNRGEC
EGFR, HER2 and HER3 levels in whole cell lysates [7]: HER2 up-regulation

ka [3]: 470000 M⁻¹ s⁻¹
kd [3]: 0.00034 s⁻¹
ka [4]: 190000 M⁻¹ s⁻¹
kd [4]: 0.0002 s⁻¹
B6: antibody 10810: humanized anti-HER3 antibody from chimeric parent 5038; HC SEQ ID NO: 56, LC SEQ ID NO: 57 (antibody, V domains shown)
VH: QVQLQESGPGLVKPSQTLSLTCTVSGYSITSGFYWTWIRQHPGNGLEWIGFISYSGSNNYNPSLKNRVTISVDTSKNQFSLKLSSVTAADTATYYCARGGGYYGNLFDYWGQGTLVTVSS
VL: DIQMTQSPSSLSASVGDRVTITCRPSQDISNYVNWFQQKPGKAPKLLIFHTSRLHSGVPSRFSGSGSGTDFTLTISSLQPEDIATYYCQQGITLPWTFGQGTKVEIK
cross-reactivity pattern with HER family antigens [5]: binding to the same human and cynomolgus antigen combined with lack of binding to the mouse antigen or to other EGFR family receptors
anti-proliferative effect in combination with partner antibody, compared to mixture of the two chimeric parent antibodies [6]: highly similar anti-proliferative effects

Continued, molecule first:

Molecule: C#Cc1cccc(Nc2ncnc3cc(OCCOC)c(OCCOC)cc23)c1 [Erlotinib]
Erlotinib resistant ([1]; model ST191): Yes
Erlotinib resistant ([1]; model ST334): Yes
Erlotinib resistant ([1]; model ST383): Yes
Erlotinib resistant ([1]; model ST385): Yes
Erlotinib resistant ([1]; model STS021): No
Erlotinib resistant ([1]; model STS058): Yes
Erlotinib resistant ([1]; model STS059): Yes

Molecule: pertuzumab
metabolic activity ([2]; parental MDA-MB-175-VII cells): reduced
metabolic activity ([2]; pertuzumab resistant MDA-MB-175-VII cells): unaltered

B2: MM-121: anti-HER3 treatment lane in the OVCAR-8 Western blot (antibody, chains of the INN, looked up)
heavy: EVQLLESGGGLVQPGGSLRLSCAASGFTFSHYVMAWVRQAPGKGLEWVSSISSSGGWTLYADSVKGRFTISRDNSKNTLYLQMNSLRAEDTAVYYCTRGLKMATIFDYWGQGTLVTVSSASTKGPSVFPLAPCSRSTSESTAALGCLVKDYFPEPVTVSWNSGALTSGVHTFPAVLQSSGLYSLSSVVTVPSSNFGTQTYTCNVDHKPSNTKVDKTVERKCCVECPPCPAPPVAGPSVFLFPPKPKDTLMISRTPEVTCVVVDVSHEDPEVQFNWYVDGVEVHNAKTKPREEQFNSTFRVVSVLTVVHQDWLNGKEYKCKVSNKGLPAPIEKTISKTKGQPREPQVYTLPPSREEMTKNQVSLTCLVKGFYPSDIAVEWESNGQPENNYKTTPPMLDSDGSFFLYSKLTVDKSRWQQGNVFSCSVMHEALHNHYTQKSLSLSPG
light: QSALTQPASVSGSPGQSITISCTGTSSDVGSYNVVSWYQQHPGKAPKLIIYEVSQRPSGVSNRFSGSKSGNTASLTISGLQTEDEADYYCCSYAGSSIFVIFGGGTKVTVLGQPKAAPSVTLFPPSSEELQANKATLVCLVSDFYPGAVTVAWKADGSPVKVGVETTKPSKQSNNKYAASSYLSLTPEQWKSHRSYSCRVTHEGSTVEKTVAPAECS
EGFR, HER2 and HER3 levels in whole cell lysates [7]: HER2 up-regulation

B3: antibody 1565: chimeric parent anti-EGFR antibody disclosed in WO 2012/059857; VH SEQ ID NO: 19, light chain SEQ ID NO: 21 (antibody)
VH: RAEVQLQQSGTELVKPGASVILSCKASGYTFTSYWMQWVKQRPGQGLEWIGNINPSNGGTSFNEEFKSRATLTVDKSSSTAYMQLSSLTSEDSAVYYCARDGGLYDGYYFDFWGQGTTLTVS
light: LANIVMTQSHKFMSTLIGARVSITCKASQDVDTAVAWYQQKPGQSPKLLIYWASTRHTGVPDRFTGSGSGTDFSLTVSNVQSEDLTDYFCQQYSSYPLTFGAGTKLELKRTVAAPSVFIFPPSDEQLKSGTASVVCLLNNFYPREAKVQWKVDNALQSGNSQESVTEQDSKDSTYSLSSTLTLSKADYEKHKVYACEVTHQGLSSPVTKSFNRGEC
ka [8]: 580000 M⁻¹ s⁻¹
kd [8]: 0.016 s⁻¹
EGFR, HER2 and HER3 levels in whole cell lysates [9]: HER2 upregulation

B5: antibody 1277: chimeric parent anti-EGFR antibody disclosed in WO 2012/059857; VH SEQ ID NO: 15, light chain SEQ ID NO: 17 (antibody)
VH: RAEVQLVESGGGLVKPGESLKLSCAASGFAFSYSDMSWVRQTPEKRLEWVAYMSSAGDVTFYSDTVKGRFTISRDNAKNTLYLQVSSLKSEDTAIYYCVRHRDVAMDYWGQGTSVTVS
light: LADVVMTQTPLSLPVSLGDQASISCRSSQSLVHSNGNTYLHWYLQKPGQSPKLLIYKVSNRFSGVPDRFSGSGSGTDFTLKISRVEAEDLGVYFCSQSTHVPTFGGGTKLEIKRTVAAPSVFIFPPSDEQLKSGTASVVCLLNNFYPREAKVQWKVDNALQSGNSQESVTEQDSKDSTYSLSSTLTLSKADYEKHKVYACEVTHQGLSSPVTKSFNRGEC
ka [8]: 660000 M⁻¹ s⁻¹
kd [8]: 0.00039 s⁻¹
EGFR, HER2 and HER3 levels in whole cell lysates [9]: HER2 upregulation
